Experimental data published in article PMC6693562 (Cell Reports, 2019).
Changes are numbered by the printed parent chain. Names and notes keep the numbering of the source.

B1: MBP-OD^WT (human 53BP1 oligomerization domain, residues 1233-1288, fused to N-terminal maltose-binding protein) (domain or fragment, UniProt Q12888 1233-1288, looked up)
chain: GHVLHRHMRTIREVRTLVTRVITDVYYVDGTEVERKVTEETEEPIVECQECETEVS
B2: MBP-OD with mutation of D1256 (D1256A) (domain or fragment, human, UniProt Q12888 1233-1288, looked up)
chain: B1 chain with D24A

Molecular target: the molecule itself
Experiment: SEC-RALS

Protein	stoichiometry N
B1	4
B2	2
